Results on 22 sequences are retold here after the DeepSol protein solubility set.

The data set is described as follows: soluble on expression in E. coli; label from the status in PepcDB or PDB records.
With “MFSENLKKCRKQKKLTQQNMADKLGITRPAYTAYELGSREPDYKTLINISNILDVSLDYLLKGESNEKVFQDEAKKVLNDPETFLAAKDGEVTDEILQAALEIITEQLKERRKSDK”, the “soluble on expression in E. coli” value is given as “not soluble”.

For the sequence “MFSLSFPSSSSALLPSLVAFDSSRRLSLQPKKLNRLQSHLFSPQHLSFSQSNVSRYRAFCVSSSSPPEGTVSVVDFHEKDWSFLESMEIDSTEHTQKIERIIKAGELSESSRVLVSISSETFVDRLVESSPSQLLLIVHDSLFTLACIKEKYDKVKCWQGEMIYVPEKWSPLDAVFLYFLPALPFDLDELFKTLSQRCSSGARVVISHPQGRLGLEQQRKEFSDVVVSDLPDESTLSNVAEKHSFELTQFVDEQGLYLAVLKSSKQ”, the “soluble on expression in E. coli” value is reported as “soluble”.

With “MFSSAHSGLLEKLFHYIDLHQDEFVQTLKEWVAIESDSVQPVPRLRQKLFQMMALAADKLRNLGAGVESIDLGSQQMPDGQSLPIPPILLAELGSDPEKPTVCFYGHLDVQPAQKDDGWLTDPYTLTEVDGKLYGRGATDNKGPVLAWINAVSTFRALQQDLPVNIKLILEGMEEAGSIALEELVMREKDHFFSSVDYIVISDNLWLSQRKPALTYGTRGNCYFTVEVKCRDQDFHSGTFGGILNEPMADLVALLGSLVDSSGHILIPGIYDQMAPITEGEKTMYKNIDMDLEEYQNINQVEKFLFDTKEELLMHLWRYPSLSIHGIEGAFDEPGTKTVIPGRVLGKFSIRLVPTMSPSVVEKQVTQHLEAVFSKRNSFNKMAVSMVLGLHPWTANVNDTQYLAAQRTIKTVFGVNPDMIRDGSTIPIAKIFQAITQKSVMMLPLGAVDDGEHSQNEKINRWNYIQGSKLFAAFFLELSKQHSGHQMPSSVY”, the “soluble on expression in E. coli” value is “not soluble”.

Consider “MFSYHELITIESVARLGSFSQAADELHKVPSAISYTIKSVEDRLTVVLFTRLHRRVELTAAGTYFVDQARKLLKDMEEIRFNTQRVANGWQQSVSVALDNVVRENSVNQLVRDFYATFPDIELQLTMEVFNGVWDALMTGRADIGIGATATIPIGGDFSYRPMGELAWDFIVSINHPLASFEHDIPNEELVKYPAICLEDTSQILPKRSTWLLDNQRRLIVPNWHSAEQCFIDGLGVGVIPNHRAKRLLETGQVISKKIEHHIAPSPCCLAWNNNNQSVAIQWLLDYLGDSDKLNSEWLKEF”, for which the “soluble on expression in E. coli” value is “not soluble”.

“MFTGLVEAIGVVKDVQGTIDNGFAMKIEAPQILDDCHTGDSIAVNGTCLTVTDFDRYHFTVGIAPESLRLTNLGQCKAGDPVNLERAVLSSTRMGGHFVQGHVDTVAEIVEKKQDGEAIDFTFRPRDPFVLKYIVYKGYIALDGTSLTITHVDDSTFSIMMISYTQSKVIMAKKNVGDLVNVEVDQIGKYTEKLVEAHIADWIKKTQA”: the “soluble on expression in E. coli” value was “soluble”.

Regarding “MFVLNIFSTTHKQRGLNRASCPPLGNYSNNHTLAYRVKCISEETRDSNSLVSSLNRKLWKTSVAGSDIPMIYSPFLEDMQNTLFASFETVEDYPLSEFLASAQSSKKPARIESWCYQCPKFRKIRLTYLDAGVAAQVFNAVWYPISSLELPILGVDFLSFGGKNVLCVMDFQPLMNDQYYLDKYIQPLHPIRERYADLAGRMSSRFYDENRFFSKELLFGRFDSTKPIYERLFPAFREYLDLYITLAKQTVEDDKSRSIIWQLQCEYDRYSAEKDPAMSLFRSYFGSTWAHRFVYEFLFENSRYESSLDNKT”, the “soluble on expression in E. coli” value is “soluble”.

Consider “MFYFRNLDGYTFFSFMKQKPRRNLFIGVPPLEGTCTKEVVHEAIKEILFYSYC”, for which the “soluble on expression in E. coli” value is on record as “not soluble”.

In the case of “MFYLSELEHSLRVPPHLLNLPLEDAIKSVLQNVFLDKVLADLGLCVSIYDIKSVEGGFVLPGDGAATYKVGLRIVVFRPFVGEVIAAKFKESDANGLRLTLGFFDDIYVPAPLMPKPNRCEPDPYNRKQMIWVWEYGEPKEDYIVDDACQIKFRVESISYPSVPTERAEDAKPFAPMVVTGNMDDDGLGPVSWWDSYEQVDQEE”, the “soluble on expression in E. coli” value was “soluble”.

As to “MGAFFVGVIWHFPVLAFCPLPDKPQWVAVRQVVDGDTLRLVDGRSVRLIGINAPEMGRKGRTSEPYAEAARRRLQALVKANDDRVGLVPGVEGKDKYGRTLAHIYSRNGDNLEAQLLSEGLGYRVAIAPNVRLSGCQQLAEQAARQAGVGLWRHSPVVAASDVRQSGFAVVRGRIEGIERNRGGVWLTLGSTLVLQVPARLQRNFPASFFDNLKGRQVEARGWVLDRSRRGGLKPGQRRWVLPLTDPSMLERISGLEHHHHHH”, the “soluble on expression in E. coli” value was “not soluble”.

In the case of “MGAQNSKRKDLKNINDEDYAHFMEKLKKHTDGKDKMTRDQFVAMFIPILGEYSSQFYFRLVKNEPQGVLLAKTILKCIDTGLGHFDQLADMLRFCFGDQKDQIMRNVVKIFCEGNKFTREDQVRLYDYFETENTKPVSELESFFSMCPLFAYCASFIFQRLLDKTGDSKMPILSDKTHLMGNIDQLVLNSHLPFDRRKNWTLLYSNMKHGQSFSQLVKCINGEGPCMIVIRSMKGRRFGFFASQGFLAGPQYRGTAECFLFQLAPKIATFDATGRTENYVYLNYQQQQHPNGLGIGGTESVWPLFIHEEFGGGTCQKNSSSFEPCHIAEEDEFKIKTIEAWRPGDKPQKSFEEQILLEERSPEKSIIDKDPEARAVLELAGKSMHSEAYRDPAPLLDGE”, the “soluble on expression in E. coli” value is reported as “not soluble”.

In the case of “MGCGFSRQHVVKTNVSSFDRELLDLKIQRDSLQQYEQRLSDSLKNYIKLARRLVAENQRQQALVVLQVKHALQKSIEKAQNMRFNLEQVLSEIELKQIETDYVLKLRTGTKLLQSIQKTLSIEEIEHLLEETKEAIEFQNKVTEVLGSFSLMEIDESCEEELEQLETAMFPPVPKRLEKTMTPQVTENMQVKSETAKEYSKQESILLPS”, the “soluble on expression in E. coli” value is on record as “soluble”.

In the case of “MGDITNEMIWQAIKELAEQLQQTNGQVQQLSQQVQQTNEQVQQLGQQIQHLNSQVQQLNHQVQQTHEQVGQLAKQVQQTNEQLNQLSQQVADMDKRLTDVANGQNILVEELFENKKEIKRVKTALNMY”, the “soluble on expression in E. coli” value is “not soluble”.

In the case of “MGDNQVTGGDIHKLWMTAHMDISAVEDAYIKLTEQLDGDVAEGDEGKYGKAFDSWNIYREIVQLALFRTAVSARATRLALDLAVSEFTFVDGDAANGITDAGKEFLEAVGDENQTPPEYVVEPEGDPVAPLGNDE”, the “soluble on expression in E. coli” value is listed as “not soluble”.

Consider “MGDPVEGKGGPQPRGGKKKDADDEKNAWEEGDFIDEKELKGALQLGVLKTADSVALRAGERNGLDMVVEEDVVSQVGALVWDTVAQDWADDLARFVAHAGRQRVNMDDISLLTRRNPDLLRAACELAGVDCPQETSGGTKGKPRKRKKDDVTVAPMLRAAPSAPNSQNAPLLAPIQEEDDENDDDDEITILDDQILHTPQQKSYSKKAKFSEEEAPSSRKRISTSTPKTTAERTLKFPDEITPIRQPNDLQEIVVFNRANLSAIEEEEQQDSFDAFGTTGGNDSSSKTITNTSSLLRQAEEHRSSIVEPTKDRIEKERLDRLVPDDEEFENASVDSFDNFNAEPDPAPAPALAPVPEKRTSVFSKKICSFDFDDDDGDDSFDEPVVVVAEVPKLPVQQQKTPKASGSESKKKPEKRPESSTPSVFSKKNKTIQLDDHDSFDDFDFGI”, for which the “soluble on expression in E. coli” value is “not soluble”.

Regarding “MGDYENVLMVKPKVFVYRIPPIGTSGHKAADWNLDSPAWTGRMRLVAIGKRLEMRLEDGETCDLYAKCPIDAHPGNAIEAVSDSSRYFVIRLQNDNGQQAFVGCGFQERGDAFDFNVTLQDHFRYIERSAELEKQDLSAGPSLDLAFKEGQTISINIGKKDKSAVSRPRPAPGASTGGLVPLLPPPPGAGSMIRNSRPSTTTTTASSSLSSAFAAPPPAPSSSTSTTATSGNLLDF”, the “soluble on expression in E. coli” value is listed as “not soluble”.

As to “MGESFTQAVVEGPQPKPSRFQFVPVPGEFTRGRWKCRDSYHPNAETLEFEKNKSKEEETNPDKISVFFKLRQQQQEPEPEPEPPQPPPQESTIQVTSVKSTRPDTGDPGDSEVVTTDSTESIIITRKNGVTIVRKTSNSLLLPDEKYDQIRQLSIDDFENKEKKQQVPPTPMNTPPASLAVVDTSIQSTTSETTPGHSSSRKPSKEDSSPFDASSATPAPSQLETPQQQKPTTTRHFQVEPVVLSEPSTPAPVAPAPSIETLTSTSPPVTQQLAPSLSEPTFQVIQTEESKNMSMDSVKNVVDAAALSAPAPAPLSQSDRLNHVDEVEGTTPSNVMITVSSAAAALEKKEEAAFAAAGSLDSCGIPISGGGAAAQTSAPHSTPYGTPKDTHIQQQQQPVVFEEILTANGPPPQPSSPLLPALITTTTSAPTIAPASSPIINASGSSIPAASTSGISLFPSGGVTSSLTTPSTTADTHTPIDNKIEQAMELVKTHLTYAVREEVDTLRNTIAELEYQMRESQYECTYYRQNCAPDLIEQASSFVHQQMASHQRPAARRAVSTAGIFDGSSSGGGGGQASSGASASASSAHMRNLQNQIQQMKQITPITTNTCINSTSTSTTAYTSTPTASIPAATAITTTTAPPKPSPTTSESSLITGDLGAPAGAVAQKMTTTNN”, the “soluble on expression in E. coli” value is given as “not soluble”.

On to “MGFAFKRGISTPDLALITRQLATLVQSGMPLEECLRAVAEQSEKPRIRTMLVAVRAKVTEGYTLSDSLGDYPHVFDELFRSMVAAGEKSGHLDSVLERLADYAENRQKMRSKLQQASENLYFQ”, for which the “soluble on expression in E. coli” value is on record as “soluble”.

“MGFDLDVEKKKENRNIPQANNLKIKVIGVGGAGNNAINRMIEIGIHGVEFVAVNTDLQVLEASNADVKIQIGENITRGLGAGGRPEIGEQAALESEEKIREVLQDTHMVFITAGFGGGTGTGASPVIAKIAKEMGILTVAIVTTPFYFEGPERLKKAIEGLKKLRKHVDTLIKISNNKLMEELPRDVKIKDAFLKADETLHQGVKGISELITKRGYIRLTSRFARIESVMKDAGAAILGIGVGKGEHRAREAAKKAMESKLIEHPVENASSIVFNITAPSNIRMEEVHEAAMIIRQNSSEDADVKFGLIFDDEVPDDEIRVIFIATRFPDEDKILFPEGDIPAIYRYGLEGLL”: the “soluble on expression in E. coli” value is reported as “soluble”.

Take “MGGDADSPRERIEALAEDDHVEMRRAVDSAITSDAAAIIVIAGVGGATGSVIAPKLTDALQRIYDRPVYAVSVLPATHEEVPPENPARAIAAFESAANAQLVFDNDAWVDDRNDVEDVTDGLNAELAMRLGALFSAGEAVTAESVGQRVVDASEVISTLDEGGLATIGFARQPLGTDGDDGSLLDRARELVGMDETTVDEVESIKAVETTLRQATNGRLTFDCPRDAARSGLLVVSGPPEWLHQTAVSDGQSWLADEIGSVQLRTGDNPMPGGDELTILVLLGGIRGAPRIKEIQAATDLEHHHHHH”: the “soluble on expression in E. coli” value was “not soluble”.

For “MGGGHFAASNALKTAFLQKDPQAKVEIVDTLKIISPILDKLAVGTYLKAIKTVPFIYGLVYDSTDKDPPTRFSKAIYEKFYFAFYKLYNIISELNPDVIIGTHPSPIDMVSQLKKRGNINVPIISIVTDFTIHPYWINEYADYIIVHHENLVYEAVKKGAPGKKVIPLGIPLEHHHHHH”, the “soluble on expression in E. coli” value is given as “not soluble”.

As to “MGGSHHHHHHGMASALAAKVDLSTSTDWKEAKSFLKGLSDKQREEHYFCKDFVRLKKIPTWKEMAKGVAVKVEEPRYKKDKQLNEKISLLRSDITKLEVDAIVNAANSSLLGGGGVDGCIHRAAGPLLTDECRTLQSCKTGKAKITGGYRLPAKYVIHTVGPIAYGEPSASQAAELRSCYLSSLDLLLEHRLRSVAFPCISTGVFGYPCEAAAEIVLATLREWLEQHKDKVDRLIICVFLEKDEDIYRSRLPHYFPVA”, the “soluble on expression in E. coli” value is listed as “not soluble”.

Regarding “MGGSHHHHHHGMASALQRVSGLLSWTLSRVLWLSGLSEPGAARQPRIMEEKALEVYDLIRTIRDPEKPNTLEELEVVSESCVEVQEINEEEYLVIIRFTPTVPHCSLATLIGLCLRVKLQRCLPFKHKLEIYISEGTHSTEEDINKQINDKERVAAAMENPNLREIVEQCVLEPD”, the “soluble on expression in E. coli” value was “not soluble”.
